According to the supplement of paper PMC11246515:
± gives the standard deviation of the averaged measurements.

Experiment: total protein half-life in vivo (active degradation + dilution); higher = more stable protein
[1] = E. coli NCM3722 delta-clpP delta-lon delta-hslV, growth: N-lim chemostat, doubling time 6 h
[2] = E. coli NCM3722 delta-clpP, growth: N-lim chemostat, doubling time 6 h
[3] = E. coli NCM3722 delta-hslV, growth: N-lim chemostat, doubling time 6 h
[4] = E. coli NCM3722 delta-lon, growth: N-lim chemostat, doubling time 6 h
[5] = E. coli NCM3722 delta-smpB, growth: N-lim chemostat, doubling time 6 h
[6] = wild type E. coli NCM3722, growth: C-lim chemostat, doubling time 3 h
[7] = wild type E. coli NCM3722, growth: C-lim chemostat, doubling time 6 h
[8] = wild type E. coli NCM3722, growth: C-lim chemostat, doubling time 12 h
[9] = wild type E. coli NCM3722, growth: N-lim chemostat, doubling time 6 h
[10] = wild type E. coli NCM3722, growth: N-lim chemostat, doubling time 12 h
[11] = wild type E. coli NCM3722, growth: P-lim chemostat, doubling time 6 h
[12] = wild type E. coli NCM3722, growth: P-lim chemostat, doubling time 12 h

| Sequence | total protein half-life in vivo [1] | total protein half-life in vivo [2] | total protein half-life in vivo [3] | total protein half-life in vivo [4] | total protein half-life in vivo [5] | total protein half-life in vivo [6] | total protein half-life in vivo [7] | total protein half-life in vivo [8] | total protein half-life in vivo [9] | total protein half-life in vivo [10] | total protein half-life in vivo [11] | total protein half-life in vivo [12] |
| --- | --- | --- | --- | --- | --- | --- | --- | --- | --- | --- | --- | --- |
| MLQVYLVRHGETQWNAERRIQGQSDSPLTAKGEQQAMQVATRAKELGITHIISSDLGRTRRTAEIIAQACGCDIIFDSRLRELNMGVLEKRHIDSLTEEEENWRRQLVNGTVDGRIPEGESMQELSDRVNAALESCRDLPQGSRPLLVSHGIALGCLVSTILGLPAWAERRLRLRNCSISRVDYQESLWLASGWVVETAGDISHLDAPALDELQR [P0A7A2] | 4.23 ± 1.4 h | 2.57 ± 0.17 h | 2.36 ± 0.011 h | 2.852 ± 0.012 h | 2.65 ± 0.051 h | 2.75 ± 0.28 h | 4.55 ± 0.27 h | 7.06 ± 0.16 h | 2.71 ± 0.11 h | 3.84 ± 0.45 h | 4.88 ± 0.12 h | 8.06 ± 1 h |
| MLRFLNQCSQGRGAWLLMAFTALALELTALWFQHVMLLKPCVLCIYERCALFGVLGAALIGAIAPKTPLRYVAMVIWLYSAFRGVQLTYEHTMLQLYPSPFATCDFMVRFPEWLPLDKWVPQVFVASGDCAERQWDFLGLEMPQWLLGIFIAYLIVAVLVVISQPFKAKKRDLFGR [P0A6M2] | – | 6.09 h | – | > 8 h | – | – | – | – | 6.88 h | 9.57 h | 5.52 h | – |
| MLRHNVPVRRDLDQIAADNGFDFHIIDNEIYWDESRAYRFTLRQIEEQIEKPTAELHQMCLEVVDRAVKDEEILTQLAIPPLYWDVIAESWRARDPSLYGRMDFAWCGNAPVKLLEYNADTPTSLYESAYFQWLWLEDARRSGIIPRDADQYNAIQERLISRFSELYSREPFYFCCCQDTDEDRSTVLYLQDCAQQAGQESRFIYIEDLGLGVGGVLTDLDDNVIQRAFKLYPLEWMMRDDNGPLLRKRREQWVEPLWKSILSNKGLMPLLWRFFPGHPNLLASWFDGEKPQIAAGESYVRKPIYSREGGNVTIFDGKNNVVDHADGDYADEPMIYQAFQPLPRFGDSYTLIGSWIVDDEACGMGIREDNTLITKDTSRFVPHYIAG | > 8 h | > 8 h | > 8 h | > 8 h | – | – | – | 8.91 h | > 8 h | > 16 h | > 8 h | > 16 h |
| MLRIADKTFDSHLFTGTGKFASSQLMVEAIRASGSQLVTLAMKRVDLRQHNDAILEPLIAAGVTLLPNTSGAKTAEEAIFAAHLAREALGTNWLKLEIHPDARWLLPDPIETLKAAETLVQQGFVVLPYCGADPVLCKRLEEVGCAAVMPLGAPIGSNQGLETRAMLEIIIQQATVPVVVDAGIGVPSHAAQALEMGADAVLVNTAIAVADDPVNMAKAFRLAVEAGLLARQSGPGSRSYFAHATSPLTGFLEASA | 2.21 ± 0.21 h | 1.09 ± 0.22 h | 0.8075 ± 0.0064 h | 1.093 ± 0.0074 h | 0.844 ± 0.015 h | 1.59 ± 0.079 h | 1.61 ± 0.17 h | 1.81 ± 0.88 h | 0.928 ± 0.09 h | 1.067 ± 0.0049 h | 2.01 ± 0.17 h | 3.07 ± 0.59 h |
